From paper PMC8196016

Molecular target: SARS-CoV-2 RBD trimer protein (SARS-CoV-2 | bacteriophage T4) (UniProt P0DTC2)
Test: SEC; Superdex 200 Increase 10/300 GL; four peaks, peak 3 taken as the trimer by expected size and Western blotting under non-reducing conditions

“SARS-CoV-2 RBD trimer protein (from UniProt P0DTC2 319-541) (domain or fragment)” showed a stoichiometry N of 3.
